This is an account of results in patent US20060134746, “Adding photoregulated amino acids to the genetic code” (The Scripps Research Institute, published 2006).

Data set [1] deals with CAP70TAG azobenzyl-Phe mutant, irradiated at 334 nm (about 50% cis) I70(azobenzyl-Phe) (Escherichia coli). Kind of data set: EMSA. As to conditions: 20 uM cAMP, 25 C; after 334 nm irradiation 40 min at 0 C, photostationary state about 50% cis. A general note: Mobility shift assays separate free from complexed probe on a gel.
Data set [2] concerns CAP (catabolite activator protein) wild-type (Escherichia coli). Kind of data set: EMSA. As to conditions: 20 uM cAMP, 10 mM Tris pH 7.5, 50 mM NaCl, 1 mM MgCl2, 25 C; approximate value.
Data set [3] relates to CAP70TAG azobenzyl-Phe mutant, trans (before irradiation) I70(azobenzyl-Phe) (Escherichia coli). Kind of data set: EMSA. As to conditions: 20 uM cAMP, 25 C; approximate value; 4-fold lower than wt; same value recovered after switching back with light >=420 nm.
Data set [4] concerns the target E. coli leucyl-tRNA synthetase (ecLRS) wild-type (Escherichia coli, UniProt P07813 SEQ:1-860). Kind of data set: cell_activity; amber suppression of GAL4 (2 TAG) in S. cerevisiae, beta-galactosidase; printed as 104-fold increase (10^4) over either component alone. The source says: The orthogonality of the E. coli leucyl suppressor tRNACUA (Leu5CUA) (FIG. 1A), which has U35 and A37 in the anticodon loop, and the corresponding ecLRS was examined in vivo in a selection strain of S. cerevisiae [MaV203:pGADGAL4(2 TAG)]. See Chin, et al., Science, 2003, 301:964-7. This strain harbors the transcriptional activator GAL4 with amber codons at two permissive sites (Thr44 and Arg110). Efficient suppression at both sites leads to expression of three reporter genes: lacZ, his3, and ura3. In the presence of either Leu5CUA or ecLRS alone, no significant β-galactosidase activity was detected above the residual activity in lysates from […] cells. […] See ibid.

Sequence of E. coli leucyl-tRNA synthetase (ecLRS) wild-type (P07813 whole entry, the tested form may be a part): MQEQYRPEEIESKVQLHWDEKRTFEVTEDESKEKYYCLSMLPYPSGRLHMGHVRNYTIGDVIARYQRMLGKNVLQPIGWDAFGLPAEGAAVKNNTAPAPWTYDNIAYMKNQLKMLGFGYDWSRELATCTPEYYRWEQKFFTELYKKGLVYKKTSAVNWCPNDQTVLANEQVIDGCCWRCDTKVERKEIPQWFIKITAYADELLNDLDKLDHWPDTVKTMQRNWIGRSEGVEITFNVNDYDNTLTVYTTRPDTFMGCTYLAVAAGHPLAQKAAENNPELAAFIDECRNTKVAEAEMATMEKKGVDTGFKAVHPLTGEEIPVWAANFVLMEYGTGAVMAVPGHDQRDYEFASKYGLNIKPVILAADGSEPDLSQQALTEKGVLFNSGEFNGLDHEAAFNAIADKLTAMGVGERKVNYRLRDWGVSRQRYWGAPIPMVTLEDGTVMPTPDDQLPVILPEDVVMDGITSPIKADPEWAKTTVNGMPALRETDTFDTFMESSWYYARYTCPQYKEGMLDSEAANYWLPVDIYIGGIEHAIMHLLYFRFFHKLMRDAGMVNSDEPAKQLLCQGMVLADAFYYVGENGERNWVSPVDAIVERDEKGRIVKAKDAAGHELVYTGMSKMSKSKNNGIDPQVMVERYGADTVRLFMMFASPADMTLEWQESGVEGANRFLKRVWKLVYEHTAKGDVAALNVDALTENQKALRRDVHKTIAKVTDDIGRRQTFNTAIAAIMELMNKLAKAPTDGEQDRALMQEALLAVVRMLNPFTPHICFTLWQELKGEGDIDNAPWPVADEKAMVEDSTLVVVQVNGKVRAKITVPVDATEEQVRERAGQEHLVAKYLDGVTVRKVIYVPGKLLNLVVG

As to “118 bp lac promoter fragment with primary CAP site”, the results for the Ka in data set [1], in data set [2] and in data set [3] were 1e+06 M⁻¹, 1.6e+07 M⁻¹ and 4e+06 M⁻¹, respectively.

B1: Leu5CUA amber suppressor tRNA (ssRNA)
RNA: GCCCGGAUGGUGGAAUCGGUAGACACAAGGGAUUCUAAAUCCCUCGGCGUUCGCGCUGUGCGGGUUCAAGUCCCGCUCCGGGUACCA
Consider B1, for which, in data set [4], the activity was above 10000 fold.
